Results reported in CN108239149A (NANJING LEGEND BIOTECHNOLOGY CO LTD, dated 2018).

How the values were obtained:
[1] = biological target: T1, 融合至人IgG1 Fc段的人PD-L1胞外结构域的重组蛋白PD-L1-Fc (GenScript, Z03371) (human, UniProt Q9NZQ7 19-238, biotin-labelled in the PD-1 competition ELISA (site not stated)); assay: indirect ELISA, PD-L1-Fc coated at 0.5 μg/ml, antibody titrated
T1 construct: extracellular domain; Bought reagent (GenScript Z03371); also called 重组PD-L1-Fc; 生物素标记的PD-L1-Fc; not shown: Human IgG1 Fc segment
T1 sequence (Q9NZQ7 19-238 limits assumed, one chain of several): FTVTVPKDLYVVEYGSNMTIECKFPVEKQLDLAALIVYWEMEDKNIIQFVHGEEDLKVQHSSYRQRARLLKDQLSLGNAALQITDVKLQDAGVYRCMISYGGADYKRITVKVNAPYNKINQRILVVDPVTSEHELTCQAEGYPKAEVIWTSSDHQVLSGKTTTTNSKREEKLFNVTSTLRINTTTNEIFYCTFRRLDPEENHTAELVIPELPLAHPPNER

[2] = biological target: 人PD-L1 expressed on cells (表达PD-L1的CHO细胞) (human) (UniProt Q9NZQ7); assay: cell-based or functional assay
[3] = biological target: T1, 融合至人IgG1 Fc段的人PD-L1胞外结构域的重组蛋白PD-L1-Fc …; assay: competition ELISA: antibody titrated against biotinylated PD-L1-Fc binding to coated human PD-1

B1: 18B7F4G8 (antibody, V domains shown)
VH: DVQLQESGPDLVKPSQSLSLTCTVTGYSITSGYTWHWIRQFPGNKLEWMGYIHYSGSTKYNPSLKSRFSITRDTSKNQFFLQLNSMTAEDTATYYCARNSLFASWGHGTLVTVSA
VL: DIVLTQSPASLAVSLGQRATISCRASESVDTYGDSFMHWFQQKPGQPPKLLIYRASNLESGIPARFSGSGSRTDFTLTINPVEADDVATYYCQQSNEAPYTFGGGTKLEIK
notes: Mouse hybridoma clone; Detected with goat anti-mouse IgG
EC50 [1]: 0.00531 µg/mL | IL-2分泌 (混合淋巴细胞反应) EC50 [2]: 0.359 µg/mL | 相对光单位(RLU) NFAT报告细胞 EC50 [2]: 0.359 µg/mL

B2: 42G2D7C3 (antibody, V domains shown)
VH: DVQLLESGPGLVKPSQSLSLTCSVTGYSITSGYYWNWIRQFPGNNLEWMGSINYDGSNDYNPSLQDRISITRDTSKNQFFLKLNSVTTEDTATYYCARRLDYWGQGTTLIVSS
VL: QIVLTQSPAIMSASPGEKVTISCSASSFINYMYWYQQKPGSSPKPWILRTSTLASGVPARFSGSGSGTSYSLTISSMEAEDAATYYCQQYHSYPLTFGAGTKLELK
notes: Made recombinantly as variable region + constant region; also called 42G2D7D3
EC50 [1]: 0.00458 µg/mL | IC50 [3]: 0.48 µg/mL | IL-2分泌 (混合淋巴细胞反应) EC50 [2]: 0.235 µg/mL | 相对光单位(RLU) NFAT报告细胞 EC50 [2]: 1.17 µg/mL

B3: 53C1F3D4 (antibody, V domains shown)
VH: QVQLQQSGNELARPGASVRLSCKASGYIFTGYGITWVRQRPGQGLEWIGEIFPRRVNTYYSEKFKGRATLTADISSSTAYMELRSLTSEDSAVYFCARDYDPYFALDYWGQGTSVTVSS
VL: DIVMTQSHKFMSTSVGDRVSITCKASQDVSTAVDWYQQKPGQSPKLLIYSASYRYTGVPDRFTGSGSGTAFTFTISGEQAEDLAVYYCQQHYSIPFTFGGGTKLEIK
notes: Mouse hybridoma clone; Made recombinantly as variable region + constant region in HEK293-6E
EC50 [1]: 0.00467 µg/mL | IC50 [3]: 0.32 µg/mL | IL-2分泌 (混合淋巴细胞反应) EC50 [2]: 0.0947 µg/mL | 相对光单位(RLU) NFAT报告细胞 EC50 [2]: 0.576 µg/mL

B4: 29A8H8C7 (antibody, V domains shown)
VH: DVQLQGSGPGLVKPSQSLSLTCTVTGYSITSDFAWDWIRQFPGNKLEWMGHIRFSGTTSYNPSLKSRISITRDTSKNQFFLQLNSVTSEDTATYYCARSTLITKGFFDYWGQGTTLTVSS
VL: DIVMTQSHKFMSTSVGGRVSITCKASQDVSPAVAWYQQKPGQSPKLLIYWASTRHTGVPDRFTGSGSGTDFTLTISSVQTEDLALYYCQQHYSTPWTFGGGTKLEIK
notes: as for B3
EC50 [1]: 0.00498 µg/mL | IC50 [3]: 0.39 µg/mL | IL-2分泌 (混合淋巴细胞反应) EC50 [2]: 0.101 µg/mL | 相对光单位(RLU) NFAT报告细胞 EC50 [2]: 0.751 µg/mL

B5: 51F3D2G4 (antibody, V domains shown)
VH: QVQLQQSGAELARPGASVRLSCKASGYIFTGYGISWVKQRTGQGLEWIGEIFPRTANTYFNEKFKGKATLTADKSSSTAYMELRSLTSEDSAVYFCARDYDPYYALDYWGQGTSVTVSS
VL: DIVMTQSHKFMSTSVGDRVTITCKASQDVSTAVDWYQQKPGQSPKLLIYSASYRYTGVPDRFTGSGSGTAFTFTISSEQAEDLAVYYCQQHYSVPFTFGGGTKLEIK
notes: as for B3
EC50 [1]: 0.0063 µg/mL | IC50 [3]: 0.4 µg/mL | IL-2分泌 (混合淋巴细胞反应) EC50 [2]: 0.209 µg/mL | 相对光单位(RLU) NFAT报告细胞 EC50 [2]: 0.883 µg/mL
